Substitutions are numbered along the chain they refer to.

T1: hANG2-Fc (human, UniProt O15123)
T1 chain: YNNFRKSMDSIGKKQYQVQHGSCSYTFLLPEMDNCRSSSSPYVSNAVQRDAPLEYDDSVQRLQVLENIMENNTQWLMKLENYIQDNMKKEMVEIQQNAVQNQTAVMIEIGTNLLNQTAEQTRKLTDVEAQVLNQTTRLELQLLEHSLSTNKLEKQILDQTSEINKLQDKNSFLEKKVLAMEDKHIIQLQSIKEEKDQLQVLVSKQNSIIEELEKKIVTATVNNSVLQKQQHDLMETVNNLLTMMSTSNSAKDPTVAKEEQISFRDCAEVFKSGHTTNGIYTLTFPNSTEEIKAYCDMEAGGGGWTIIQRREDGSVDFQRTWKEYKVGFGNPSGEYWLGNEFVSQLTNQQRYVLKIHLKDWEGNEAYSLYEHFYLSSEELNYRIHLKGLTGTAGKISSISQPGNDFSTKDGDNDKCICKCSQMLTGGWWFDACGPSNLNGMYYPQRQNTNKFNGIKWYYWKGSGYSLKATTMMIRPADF

T2: hANG2-His (human, UniProt O15123 19-496, limits assumed)
T2 construct: also called 人源ANG2; ANGPT2; not shown: C-terminal His tag
T2 sequence (looked up): T1 chain

T3: hANG2-His (human, UniProt O15123)
T3 chain: T1 chain

T4: hANG1-Fc (human, UniProt Q15389)
T4 chain: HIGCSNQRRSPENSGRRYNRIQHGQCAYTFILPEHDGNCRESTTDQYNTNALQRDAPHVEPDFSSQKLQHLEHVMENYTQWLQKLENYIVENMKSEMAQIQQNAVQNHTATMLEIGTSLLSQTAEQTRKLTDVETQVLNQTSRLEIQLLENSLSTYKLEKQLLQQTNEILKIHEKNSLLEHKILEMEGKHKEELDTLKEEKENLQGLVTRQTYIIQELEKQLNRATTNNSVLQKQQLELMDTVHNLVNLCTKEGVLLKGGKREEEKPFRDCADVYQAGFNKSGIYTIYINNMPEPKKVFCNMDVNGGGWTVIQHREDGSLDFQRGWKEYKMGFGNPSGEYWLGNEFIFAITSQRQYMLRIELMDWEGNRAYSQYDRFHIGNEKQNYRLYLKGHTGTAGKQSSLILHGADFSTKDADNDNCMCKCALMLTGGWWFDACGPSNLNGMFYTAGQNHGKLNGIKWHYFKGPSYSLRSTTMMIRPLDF

B1: nesvacumab (antibody, V domains shown)
VH: EVQLVESGGGLVQPGGSLRLSCAASGFTFSSYDIHWVRQATGKGLEWVSAIGPAGDTYYPGSVKGRFTISRENAKNSLYLQMNSLRAGDTAVYYCARGLITFGGLIAPFDYWGQGTLVTVSS
VL: EIVLTQSPGTLSLSPGERATLSCRASQSVSSTYLAWYQQKPGQAPRLLIYGASSRATGIPDRFSGSGSGTDFTLTISRLEPEDFAVYYCQHYDNSQTFGQGTKVEIK
B2: 17 (antibody, V domains shown)
VH: EVQLVESGGGVVKPGGSLRLSCAASGFTFNKYTINWVRQTPGKGLELVADISSGGDYVNYADSVKGRFTISRDNAKDSVYLLMNGLRAEDTAVYYCARDALTYSNNWLDSWGQGTLVTVSS
VL: DIQLTQSPSFLSASVGDRVTITCRASQGISSYLAWYQQKPGKAPKLLIYAASTLQSGVPSRFSGGGYGTDFTLTISSLQPEDFATYYCQQFESYPLTFGGGTRLEIK
B3: 抗体78A74-25 (antibody, IgG1, V domains shown)
VH: QVQLVESGGGLVKPGGSLRLSCAASGFTFSSYSMNWVRQAPGKGLEWVAVISYDGSNKYYADSVKGRFTISRDNSKNTLYLQMNSLRAEDTAVYYCAKATLDGYTAGYYYGMDVWGQGTTVTVSS
VL: EIVLTQSPATLSLSPGERATLSCRASQSVSSYLAWYQQKPGQAPRLLIYDASNRATGIPARFSGSGSGTDFTLTISSLEPEDFAVYYCQQRSNWPPELYFGQGTKVEIK
B4: 抗体78A74-7 (antibody, IgG1, V domains shown)
VH: B3 VH
VL: B3 VL with Q90L, R91M, L98W, Y99T
B5: 抗体78A74-21 (antibody, IgG1, V domains shown)
VH: B3 VH with A99E
VL: B3 VL with S30G, W94G, L98W, Y99T
B6: 抗体78A74-36 (antibody, IgG1, V domains shown)
VH: B3 VH
VL: B3 VL with S92T, N93M, L98W, Y99T
B7: 抗体78A74-35 (antibody, IgG1, V domains shown)
VH: B3 VH
VL: B3 VL with E97A, L98M, Y99T

In the first experiment the target is T1, hANG2-Fc. Description: competition ELISA (TIE2 blocking).
The molecule B1 came in with an IC50 of 1.58 µg/mL.
In the case of B2, the IC50 came to 0.547 µg/mL.

In a further experiment the target is T1, hANG2-Fc. The experiment in a line: FACS competition (TIE2-HEK293).
B1 had a 50% inhibitory concentration (IC50) of 0.362 µg/mL.
Still for that read-out and setting: next, B2: 0.323 µg/mL.

In the next experiment the target is T2, hANG2-His. The experiment in a line: BLI (Gator), antibody captured on sensor, hANG2-His 100/50/25 nM.
Take B3: the “fold affinity against nesvacumab” value is approximately 2 fold.
Same read-out and setting: as for B4, the figure is approximately 2 fold; as for B5, approximately 2 fold.

The next experiment concerns the target T3, hANG2-His. Description: ELISA.
B1 yielded an EC50 of 0.442 µg/mL.
Still for that read-out and setting: next, B2: 0.12 µg/mL.

The target of a further experiment is T4, hANG1-Fc. The experiment in a line: ELISA.
Turning to B1, the binding result is given as “no binding”.
Same read-out and setting: next, B2: “no binding”.

Another experiment addresses T3, hANG2-His. The experiment in a line: BLI.
The molecule B1 yielded a Kd of 1.17 nM. This counts as single-digit nanomolar.

Another experiment deals with T2, hANG2-His. The experiment in a line: BLI (Gator), antibody captured on sensor, hANG2-His 100/50/25 nM. The source holds these as a separate data set.
With B3, binding was put at a Kd of 0.828 nM, the koff worked out at 0.000161 s⁻¹ and the kon turned out to be 194000 M⁻¹ s⁻¹.
The like results for B6 were, in that order, 1.32 nM, 0.000263 s⁻¹ and 200000 M⁻¹ s⁻¹.
For B4, in that order: 0.544 nM, 0.000103 s⁻¹ and 189000 M⁻¹ s⁻¹.
The like results for B7 were, in that order, 1.52 nM, 0.000284 s⁻¹ and 187000 M⁻¹ s⁻¹.
B5 yielded a Kd of 0.687 nM, a koff of 0.000132 s⁻¹ and a kon of 192000 M⁻¹ s⁻¹.

Source of the values: patent CN116178540A (SANYOU BIO INC, dated 2023).
